The values that follow come from US20170009288, “METHOD FOR CONTROLLED DNA FRAGMENTATION” (THERMO FISHER SCIENTIFIC BALTICS UAB, published 2017).

Series [1] deals with T1, MuA transposase (UniProt P07636 P07636:1-663). Kind of series: EMSA; strong complex; 2% agarose with BSA and heparin, 1xTBE; assembled 30 C 1 h. The following applies: tags: Thermo Scientific F-750 (stand-alone MuA transposase); chain copies: 4; 5' overhang TGCT side of non-transferred strand. The procedure: (§1) In parallel, EMSA analysis was performed for all pre-formed MuA-transposon complexes used in the first experiment (Table 3). DNA shifts resulting from transposome complex formation were analyzed using agarose gel electrophoresis in 2% agarose gel containing 87 μg/ml BSA and 87 μg/ml heparin in 1×TBE buffer. DNA was stained with ethidium bromide. […] Weaker complexes were formed with transposons No. 5, 10, 11.
T1 sequence (P07636 whole entry, one chain of several): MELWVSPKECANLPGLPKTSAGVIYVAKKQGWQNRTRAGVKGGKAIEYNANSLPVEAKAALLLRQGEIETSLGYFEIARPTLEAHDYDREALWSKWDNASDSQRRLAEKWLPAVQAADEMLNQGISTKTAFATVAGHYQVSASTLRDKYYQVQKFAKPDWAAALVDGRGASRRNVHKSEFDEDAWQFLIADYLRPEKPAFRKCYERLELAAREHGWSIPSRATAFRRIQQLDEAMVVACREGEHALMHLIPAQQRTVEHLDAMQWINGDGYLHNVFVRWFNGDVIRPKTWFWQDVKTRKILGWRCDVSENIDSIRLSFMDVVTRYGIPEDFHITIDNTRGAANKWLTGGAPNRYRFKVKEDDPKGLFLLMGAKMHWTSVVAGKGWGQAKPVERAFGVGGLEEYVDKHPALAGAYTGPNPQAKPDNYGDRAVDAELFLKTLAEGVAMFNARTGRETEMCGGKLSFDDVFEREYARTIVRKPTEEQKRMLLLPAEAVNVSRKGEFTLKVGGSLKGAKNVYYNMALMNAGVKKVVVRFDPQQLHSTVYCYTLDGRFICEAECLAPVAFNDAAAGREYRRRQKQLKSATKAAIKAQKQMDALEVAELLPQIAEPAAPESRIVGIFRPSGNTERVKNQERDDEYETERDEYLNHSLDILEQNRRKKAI

Series [2] has as its target T1, MuA transposase. The series can be described thus: EMSA; no apparent complex formation. The following applies: tags: Thermo Scientific F-750 (stand-alone MuA transposase); chain copies: 4. As to the method: as §1
(In general: In EMSA bound probe runs differently from free probe, usually more slowly.)

B1: Control native Mu transposon end (dsDNA)
DNA 1: GTTTTCGCATTTATCGTGAAACGCTTTCGCGTTTTTCGTGCGTCAGTTCA
DNA 2: TGCTGAACTGACGCACGAAAAACGCGAAAGCGTTTCACGATAAATGCGAAAAC
With B1, the binding result in the series with MuA transposase [1] is “binds”.

B2: Transposon No. 9 (dsDNA)
DNA 1: GTTCTCGCATCTATCGTGAAAAGCTTCTCCGTTCTTCGGCCGCCGCTTCA
DNA 2: TGCTGAAGCGGCGGCCGAAGAACGGAGAAGCTTTTCACGATAGATGCGAGAAC
Regarding B2, the binding result with MuA transposase [2] is listed as “no binding”.
